Assay results from the RNAGym collection of RNA variant scans (doi:10.1101/gr.219683.116).

B1: mRNA-splicing (parent)
chain: AGUUGCUGCUGGGAGCUCCAGCACAGUGAAAUGGACAGAAGGGCAGAGCAA

Variants of: B1
Test: exon inclusion enrichment index; higher = more inclusion; WT1 exon 5 minigene, HEK293

Row | Variant | exon inclusion enrichment index
1 | AGUUCACACAGGGAGCUCCAGCACAGUGAAAUGGACAGAAGGGCAGCACAA [G5C C6A U7C G8A U10A A47C G48A] | 0.0538
2 | AGUUCACACAGGGAGCUCCAGUUCAGUGAAAUGGACAGAAGGGCAGAGCAA [G5C C6A U7C G8A U10A C22U A23U] | 0.0622
3 | AGUUCACACAGGGAGCUCCAGCACAGUGAAAUGGACAGUGGGGCAGAGCAA [G5C C6A U7C G8A U10A A39U A40G] | 0.0214
4 | AGUUUCUUUUGGGAGCUCCAGCACGAUGAAAUGGACAGAAGGGCAGAGCAA [G5U G8U C9U A25G G26A] | 0.765
5 | AGUUCGCGCCGGGAGCUCCAGCACAGUGAAAUGGACAGAAGGGCGGAGCAA [G5C C6G U7C U10C A45G] | 5.32
6 | AGUUCACACAGACAGCUCCAGCACAGUGAAAUGGACAGAAGGGCAGAGCAA [G5C C6A U7C G8A U10A G12A G13C] | 0.0982
7 | AGUUCACACAGGGCGCUCCAGCACAGUGAAAUGGACAGAAGGGCAGAGCAA [G5C C6A U7C G8A U10A A14C] | 0.0603
8 | AUCUCACACAGGGAGCUCCAGCACAGUGAAAUGGACAGAAGGGCAGAGCAA [G2U U3C G5C C6A U7C G8A U10A] | 0.619
9 | AGUUGACGACGGGAGCUCCAGCACAGCUAAAUGGACAGAAGGGCAGAGCAA [C6A U7C C9A U10C U27C G28U] | 2.92
10 | AGUUAGGCCUGGGAGCUCCAGCACAGUGAAAUGGACAGAAGGGCAGAGCAA [G5A C6G U7G G8C] | 0.00742
11 | AGUCGGCGCCGGGAGCUCCAGCACAGUGAAAUGGACAGAAGGGCAGAGCAA [U4C C6G U7C U10C] | 3.95
12 | AGUUUCUUUUGGGAGCUCUGGCACAGUGAAAUGGACAGAAGGGCAGAGCAA [G5U G8U C9U C19U A20G] | 0.0101
13 | AGUUGCUGCUGGGAGCUCCAGCACAGUGAAAUGGAAUGAAGGGCAGAGCAA [C36A A37U] | 0.0531
14 | AGUUGAAGAAGGGAGCUCCAGCUGAGUGAAAUGGACAGAAGGGCAGAGCAA [C6A U7A C9A U10A A23U C24G] | 0.918
15 | AGUUCACACAGGUGGCUCCAGCACAGUGAAAUGGACAGAAGGGCAGAGCAA [G5C C6A U7C G8A U10A G13U A14G] | 0.0515
16 | AGUUCUUCUCGGGAGCUCCAGCACAGUGAACAGGACAGAAGGGCAGAGCAA [G5C C6U G8C C9U U10C A31C U32A] | 1.46
17 | AGUUGCUGCUGGGAAAUCCAGCACAGUGAAAUGGACAGAAGGGCAGAGCAA [G15A C16A] | 0.03
18 | AGUUGCUGCUGGGAGCUCCAGCACAGUGACCUGGACAGAAGGGCAGAGCAA [A30C A31C] | 0.337
19 | AGUUUCUUUUGGGAGCUCCAGCACAGUGAAAUGGAUGGAAGGGCAGAGCAA [G5U G8U C9U C36U A37G] | 0.114
20 | AGUUCUUCUCGGGAGCUCCAGCACAGUUCAAUGGACAGAAGGGCAGAGCAA [G5C C6U G8C C9U U10C G28U A29C] | 1.48
21 | AGUUGCCACCGGGAGCUCCAGCACAGUGAAAUGGACAGAAGGGCAGAGCAA [U7C G8A U10C] | 2.58
22 | AGUUCUCACCGGGAGCUCCAGCACAGUGAAAUGGACAGAAGGGCAGAGCAA [G5C C6U U7C G8A U10C] | 1.77
23 | AGUUAUAUAUGGGAGCUCCAGCACAGUGAAAUGGACAGAAGUCCAGAGCAA [G5A C6U U7A G8U C9A G42U G43C] | 0.0628
24 | AGUUUCUUUUGGGAGCUCCAGCACAACGAAAUGGACAGAAGGGCAGAGCAA [G5U G8U C9U G26A U27C] | 0.838
25 | AGUUAUAUAUGGGAGCAUCAGCACAGUGAAAUGGACAGAAGGGCAGAGCAA [G5A C6U U7A G8U C9A U17A C18U] | 0.0116
26 | AGAAGCUGCUGGGAGCUCCAGCACAGUGAAAUGGACAGAAGGGCAGAGCAA [U3A U4A] | 0.0787

Row | Variant | exon inclusion enrichment index
27 | AGUUAUAUAUGGGAGCUCCAGCACAGUGAAAUGGACAGUCGGGCAGAGCAA [G5A C6U U7A G8U C9A A39U A40C] | 0.142
28 | AGUUGAUUAAGGGAGCUCCAGCACAGUGAAAUGGACAGAAGGGCAGAGCAA [C6A G8U C9A U10A] | 0.023
29 | AGUUAGGGAUGGGAGCUCUUGCACAGUGAAAUGGACAGAAGGGCAGAGCAA [G5A C6G U7G C9A C19U A20U] | 0.00173
30 | AGUUGGCGACGGGAGCUCCAGCACAGUGAAAUGGACAGAAGGGCAGAGCAA [C6G U7C C9A U10C] | 3.21
31 | AGUUAGGGAUGGGAGCUCCAGCACAGUGAAAUGGACAGAAGGCUAGAGCAA [G5A C6G U7G C9A G43C C44U] | 0.000823
32 | AGUUGACGACGGGAGCUCCAGCACAGUGAAAUGGACAGAACCGCAGAGCAA [C6A U7C C9A U10C G41C G42C] | 3.48
33 | AGUUAGGGAUGGGAGCAACAGCACAGUGAAAUGGACAGAAGGGCAGAGCAA [G5A C6G U7G C9A U17A C18A] | 0.00127
34 | AGUUGACGACGGGAGCUCCUGCACAGUGAAAUGGACAGAAGGGCAGAGCAA [C6A U7C C9A U10C A20U] | 3.39
35 | AGUUAGGGAUGGGAGCUCCAGCACAGUGAAAUGGACAGGUGGGCAGAGCAA [G5A C6G U7G C9A A39G A40U] | 0.00199
36 | AGUUGCUGCUCAGAGCUCCAGCACAGUGAAAUGGACAGAAGGGCAGAGCAA [G11C G12A] | 0.472
37 | AAAUAUAUAUGGGAGCUCCAGCACAGUGAAAUGGACAGAAGGGCAGAGCAA [G2A U3A G5A C6U U7A G8U C9A] | 0.0687
38 | AGUUCUUCUCGGGAGCUCCAGCACAGUGAAAUGGACAGAAGGGCACAGCAA [G5C C6U G8C C9U U10C G46C] | 1.62
39 | AGUUUCUUUUGGGAGCUCCAGCACAGUGAAAUGGACAGAAGGGGGGAGCAA [G5U G8U C9U C44G A45G] | 0.0217
40 | AGUUCGCGCCGGGCGCUCCAGCACAGUGAAAUGGACAGAAGGGCAGAGCAA [G5C C6G U7C U10C A14C] | 1.99
41 | AGUUCGCGCCGGGAGCUCCAGCACACCGAAAUGGACAGAAGGGCAGAGCAA [G5C C6G U7C U10C G26C U27C] | 4.24
42 | AGUUCUUCUCGGUAGCUCCAGCACAGUGAAAUGGACAGAAGGGCAGAGCAA [G5C C6U G8C C9U U10C G13U] | 0.0883
43 | AGUUCACACAGGGAGCUCCAGCACAGUGAAAUGUGCAGAAGGGCAGAGCAA [G5C C6A U7C G8A U10A G34U A35G] | 0.0186
44 | AGUUCUUCUCGGGAGCUCCAGCACAGUGAAAUGAACAGAAGGGCAGAGCAA [G5C C6U G8C C9U U10C G34A] | 1.17
45 | AGUUAGGGAUGGGAGCUCCAGCACAGUGAGUUGGACAGAAGGGCAGAGCAA [G5A C6G U7G C9A A30G A31U] | 0.000963
46 | AGUUAUAUAUGGGAGCUCCAGCACAAAGAAAUGGACAGAAGGGCAGAGCAA [G5A C6U U7A G8U C9A G26A U27A] | 0.122
47 | AGUUCUUCUCGGGCACUCCAGCACAGUGAAAUGGACAGAAGGGCAGAGCAA [G5C C6U G8C C9U U10C A14C G15A] | 0.459
48 | AGUUGAAGAACGGAGCUCCAGCACAGUGAAAUGGACAGAAGGGCAGAGCAA [C6A U7A C9A U10A G11C] | 3.21
49 | AGUUCUUCUCCUGAGCUCCAGCACAGUGAAAUGGACAGAAGGGCAGAGCAA [G5C C6U G8C C9U U10C G11C G12U] | 0.675
50 | AGUUUCUUUUGGGGACUCCAGCACAGUGAAAUGGACAGAAGGGCAGAGCAA [G5U G8U C9U A14G G15A] | 0.0466
51 | AGUUGACGACGGGAGCUCCAGCACAGUGAAAGCGACAGAAGGGCAGAGCAA [C6A U7C C9A U10C U32G G33C] | 3.23
